Data reported in patent US20040001839A1, “Multimers - isolated molecules comprising epitopes containing sulfated moieties, antibodies to such epitopes, and uses thereof” (priority 2000, published 2004).

How the values were obtained:
[1] = tested on: KG-1 cells; assay: Radioreceptor binding assay with KG-1 cells; design: species or system human; conditions: 2 ng/tube 125I-Y1-IgG tracer
Procedure: The assay system involved the use of radioactive ligands that were prepared by iodination with ^125I using chloramine T on the Y1-IgG construct or the Bolton-Hunter (CONY1) reagent. The assay tubes contained 5×10^6 KG-1 cells per 0.2 ml and a labeled tracer with varying amounts of unlabeled competitor, in PBS+0.1% BSA, pH 7.4. After one hour incubation with agitation at 4° C., the cells were thoroughly washed with cold buffer and taken for radioactivity counting.
For the radio receptor binding assay (RRA), 2 ng/tube of ^125I-Y1-IgG was used, and competition was performed with each of the three molecules. […] A rough estimate of the affinity of the Y1-IgG in this experiment is 2×10^−8 M. The corresponding affinity of the dimer is, therefore, 4×10^−8 M.
In a second RRA using labeled CONY1, a 100 ng/tube of ^125I-Y1-IgG was used, and competition was performed with each of the three molecules. […] A rough estimate of the affinity of CONY 1 in this experiment is 10^−6M. The corresponding affinity of the dimer is, therefore, 5×10^−8 M.

[2] = Pharmacokinetics of 125I-CONY1 after intravenous injection in mice; type: in vivo, Balb-C mice; conditions: 15 μg per mouse i.v.; plasma TCA-precipitable radioactivity, two-compartment model
Procedure: Two to four mice were used per time point. […] Organ/tissue total and specific radioactivity values were calculated.

[3] = molecular target: T1, GPIb (glycocalicin) derived from platelets (Homo sapiens, UniProt P07359); assay: ELISA of monomer and dimer to GPIb (glycocalicin); type: binding
T1 construct: glycocalicin (soluble, extracellular fragment of GPIbα); from tissue; host or cells: human platelets
Procedure: An ELISA assay was performed to ascertain the differences in binding between the monomer (the Y1 scFv-also known as Y1-kak) and the dimer Y1-cys-kak (the cysteine dimer) for antigen GPIb (glycocalicin) derived from platelets. A polyclonal anti single chain antibody and/or a novel polyclonal anti-VL (derived from rabbits) and anti-rabbit HRP, were used to detect the binding to GPIb. […] For instance, to reach 0.8 OD units 12.8 μg/ml of monomer was used compared to only 0.1 μg/ml of dimer.
100 ml of purified glycocalicin was incubated in a 96 flat well maxisorp plates, overnight at 4 degrees celsius. The plate was washed with PBST (PBS+0.05% tween) 3 times, then […] of PBST-milk (PBST+2% Non fat milk), for 1 hr at room temperature. The plate was washed with PBST, and the monomer or dimer (100 ml) was added in PBST-milk at different concentrations for 1 hr at room temp. Then the plate was washed and anti-VL polyclonal (derived from immunized rabbits with VL derived from Y1) (1:100 diluted in PBST-milk) was added for an hour. The plate was washed and anti-rabbit HRP was added for an additional hour. The plate was washed 5 times and 100 μl TMB substrate was added for approximately 15 minutes then 100 μl of 0.5 H2SO4 was added to stop the reaction. The optical density of the plate was measured at 450 nm in an ELISA reader.

[4] = tested on: MOLT-4 cells; assay: T-ALL (MOLT4) model in SCID mice; type: in vivo
Procedure: The in vivo mouse model for T-ALL uses SCID mice (Jackson Laboratories) injected with MOLT4 cells derived from a T cell leukemia patient.
In one experiment, SCID mice were pretreated with 100 mg/kg Cytoxan (CTX, Cyclophosphamid for injection, Mead Johnson). Eleven days after CTX injection, MOLT-4 cells were injected intravenously into the tail vein. Control mice were injected with PBS alone. One week post-MOLT-4 injection mice were injected with CONY1-Doxorubicin, which is a conjugate between scFv CON Y1 polypeptide, having KAK amino acid residues at its carboxy end and doxorubicin via a short organic linker; CONY1, which is a scFv antibody fragment derived from Y1 scFv in which the DNA sequences encoding the myc tag of Y1 were deleted and replaced with a DNA sequence encoding the amino acids lysine, alanine, lysine (KAK); or free Doxorubicin. The mice were injected three times per week for three weeks. […] (Table M).
Mice started to die 32 days post cell inoculation, and the surviving mice were sacrificed at this time. Bone marrow cells were analyzed by flow cytometry using anti-human CD44-FITC and Y1-Biotin/SAV-PE. Blood samples from several animals were monitored for platelet and white blood cell count. Livers were weighted and examined for tumor appearance. Other organs were also examined for tumor appearance.
In a second experiment, SCID mice were i.v. injected with 2×10^7 MOLT-4 cells/mouse, 5 days post treatment with cyclophosphamide. Anti-cancer agents or PBS (negative control animals) were injected i.v. three times/week from day 5 post MOLT-4 cells injection and onward. On day 35, blood was drawn from the animals, the animals were sacrificed, and their livers were excised and weighed. In the untreated, PBS-treated MOLT-4 cell-bearing animals, the liver presented with a very massive tumor growth, and its size was increased 2-3-fold relative to PBS control uninfected animals. In this experiment, there were five treatment groups:
In parallel, portions of liver tissue were taken for histology and cell harvesting for FACS analysis. The survival rate of another group of treated animals was recorded relative to that of control untreated mice.
In a third experiment, using the identical SCID/MOLT-4 protocol, there were 6 groups: […]

[5] = tested on: KG-1 cells; assay: AML KG-1 model in NOD/SCID mice; type: in vivo
Procedure: The in vivo mouse model for human AML uses SCID/NOD mice (Jackson Laboratories) inoculated with KG-1 cells derived from a human AML cell line.
In a first experiment, NOD/SCID mice were pretreated with 100 mg/kg CYTOXAN®. Four days post CYTOXAN® injection, KG-1 cells were injected intravenously into the tail vein of six groups of mice. (Table N, Groups 2 and 5-9). One group of mice (Table N, Group 1) was injected with PBS alone (control). [273.][273.]
Beginning 19 days post KG-1 injection mice were treated with: CONY1, Doxorubicin, CONY1-Doxorubicin conjugate, or Mylotarg®. (Mylotarg® is a monoclonal antibody (anti CD33) conjugated chemically to calcheamicin recently approved by the FDA for treatment of AML patients age 60 and over in a first relapse.) Mice were treated once or three times per week for three weeks. […]
Mice were sacrificed from 60 to 65 days post cell injection. Bone marrow and blood samples were analyzed by flow cytometry using mouse anti human CD34-FITC (IQP 144F) (or anti CD44-FITC (MCA89F, Serotec)) and Y1-Biotin/SAV-PE. […]
An additional experiment was performed in which SCID-NOD mice were i.v. injected with 3×10^4 MOLT-4 cells/mouse 5 days post treatment with cyclophosphamide. […] Bone marrow was extracted and analyzed by FACS analysis using a commercially available antiCD44 antibody for the detection of MOLT-4 cells in the mice bone marrow cell population.

Molecule	affinity relative to the full Y1 antibody [1]	half-life of blood clearance, second compartment [2] [h]	concentration used to reach 0.8 OD units [3] [µg/mL]	liver weight versus mice treated with free Doxorubicin or left untreated ([4]; first experiment, 3 times per week for three weeks, sacrificed 32 days post cell inoculation)	tumor growth in the liver (liver weights, day 35) ([4]; second experiment, 75 μg/mouse i.v. three times/week from day 5)	tumor growth (based on liver weights) ([4]; third experiment, 75 μg/mouse)	survival ([4]; three groups with continued treatment)	percentage of KG-1 cells in bone marrow ([5]; KG-1 cells incubated in vitro with scFv (0.25 mg/10^8 cells) before injection (groups 3 and 4))	development of the malignancy (cancer cells in bone marrow, day 60) ([5]; additional experiment, 75 μg/mouse i.v. three times/week from day 14)
S-S Y1 dimer: disulfide bridge dimer of Y1 scFv compared with CONY1 and Y1-IgG in Example 12 (protein) scFv 1: MEVQLVESGGGVVRPGGSLRLSCAASGFTFDDYGMSWVRQAPGKGLEWVSGINWNGGSTGYADSVKGRFTISRDNAKNSLYLQMNSLRAEDTAVYYCARMRAPVIWGQGTLVTVSRGGGGSGGGGSGGGGSSELTQDPAVSVALGQTVRITCQGDSLRSYYASWYQQKPGQAPVLVIYGKNNRPSGIPDRFSGSSSGNTASLTITGAQAEDEADYYCNSRDSSGNHVVFGGGTKLTVLGGGGCKAK scFv 2: MEVQLVESGGGVVRPGGSLRLSCAASGFTFDDYGMSWVRQAPGKGLEWVSGINWNGGSTGYADSVKGRFTISRDNAKNSLYLQMNSLRAEDTAVYYCARMRAPVIWGQGTLVTVSRGGGGSGGGGSGGGGSSELTQDPAVSVALGQTVRITCQGDSLRSYYASWYQQKPGQAPVLVIYGKNNRPSGIPDRFSGSSSGNTASLTITGAQAEDEADYYCNSRDSSGNHVVFGGGTKLTVLGGGGCKAK	twofold lower								
CONY1: scFv derived from Y1 scFv, myc tag replaced by lysine, alanine, lysine (KAK); SEQ ID NO:204 (protein, listed as Homo sapiens) scFv: MKYLLPTAAAGLLLLAAQPAMAEVQLVESGGGVVRPGGSLRLSCAASGFTFDDYGMSWVRQAPGKGLEWVSGINWNGGSTGYADSVKGRFTISRDNAKNSLYLQMNSLRAEDTAVYYCARMRAPVIWGQGTLVTVSRGGGGSGGGGSGGGGSSELTQDPAVSVALGQTVRITCQGDSLRSYYASWYQQKPGQAPVLVIYGKNNRPSGIPDRFSGSSSGNTASLTITGAQAEDEADYYCNSRDSSGNHVVFGGGTKLTVLGAAAKAK		3.17	12.8	weighted significantly less	markedly inhibited tumor growth in the liver	inhibited tumor growth	prolonged	significantly lower percentage of KG-1 cells	no effect
